Experimental data reported in patent publication US20240270874A1 (JIANGSU HENGRUI PHARMACEUTICALS, published 2024).

T1: human KLB on CHOK1-hKLB cells (human, UniProt Q86Z14 1-1044)
T1 construct: whole, on cells; also called human KLB antigen; β-Klotho
T1 sequence (looked up): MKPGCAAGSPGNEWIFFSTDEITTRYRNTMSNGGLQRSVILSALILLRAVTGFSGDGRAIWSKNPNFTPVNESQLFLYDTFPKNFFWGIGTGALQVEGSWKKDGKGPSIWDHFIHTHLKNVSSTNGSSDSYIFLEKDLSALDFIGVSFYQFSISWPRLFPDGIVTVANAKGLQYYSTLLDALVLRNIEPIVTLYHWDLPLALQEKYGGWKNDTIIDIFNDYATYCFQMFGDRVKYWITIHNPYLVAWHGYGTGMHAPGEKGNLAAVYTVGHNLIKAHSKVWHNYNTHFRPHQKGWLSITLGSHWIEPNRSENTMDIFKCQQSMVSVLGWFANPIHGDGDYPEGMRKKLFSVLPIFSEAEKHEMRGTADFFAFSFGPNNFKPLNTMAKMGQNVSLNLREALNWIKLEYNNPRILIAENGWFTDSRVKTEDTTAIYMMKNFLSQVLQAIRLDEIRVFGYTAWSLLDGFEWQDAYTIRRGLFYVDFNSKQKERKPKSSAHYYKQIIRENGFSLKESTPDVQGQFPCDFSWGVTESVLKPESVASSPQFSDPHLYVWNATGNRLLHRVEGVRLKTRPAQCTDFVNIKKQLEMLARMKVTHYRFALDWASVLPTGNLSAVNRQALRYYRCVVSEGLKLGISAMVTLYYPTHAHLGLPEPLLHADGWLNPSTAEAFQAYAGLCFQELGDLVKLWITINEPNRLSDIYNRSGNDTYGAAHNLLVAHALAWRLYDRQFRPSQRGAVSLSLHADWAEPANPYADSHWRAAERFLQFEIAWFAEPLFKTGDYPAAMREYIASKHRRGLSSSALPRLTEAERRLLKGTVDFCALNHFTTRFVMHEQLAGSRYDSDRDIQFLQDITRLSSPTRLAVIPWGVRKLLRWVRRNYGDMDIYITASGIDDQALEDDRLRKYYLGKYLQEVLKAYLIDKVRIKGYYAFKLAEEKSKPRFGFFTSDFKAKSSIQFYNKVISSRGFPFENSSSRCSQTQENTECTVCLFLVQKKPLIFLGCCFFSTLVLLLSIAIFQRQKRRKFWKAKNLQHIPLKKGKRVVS


target: T1, human KLB on CHOK1-hKLB cells; experiment: flow cytometry on CHOK1-hKLB cells
From the text: The above heavy chain variable regions were fused to the heavy chain constant region (set forth in SEQ ID NO: 22) and the light chain variable regions were fused to the light chain constant region (set forth in SEQ ID NO: 23) to construct anti-KLB antibodies, and the binding activity of the obtained antibodies for CHOK1-hKLB was detected (see Test Example 2 of the present disclosure for the experimental method).
The binding ability of the antibodies for CHOK1 cell strains CHOK1-hKLB and CHOK1-cynoKLB overexpressing human KLB and monkey KLB (see Example 1 for specific preparation procedure), respectively, was detected by flow cytometry. The specific procedure was as follows: the above cells were cultured in 10% FBS-containing IMDM medium and incubated in an incubator at 37° C. and 5% CO₂ for 2 days. The cells were then added to a cell plate at 1×10⁵ cells per well, centrifuged at 300 g for 5 min, and then washed once with 1% BSA. The antibody diluted in gradient was added to the cell plate at 100 μL per well, and the mixture was incubated at 4° C. for 1 h and washed once with 1% BSA. The diluted (1:400) APC-goat anti-human IgG Fc fluorescent secondary antibody was added at 100 μL per well, and the resulting mixture was incubated at 4° C. for 1 h. The plate was washed three times with 1% BSA, PBS was added at 100 μL per well, and the plate was read.

| EC50 | Binder |
| --- | --- |
| 1.58 nM | hAb18-2 (antibody, human IgG1, kappa, L234A L235A, V domains shown, humanized mAb-18: hAb18VH1 + hAb18VL2; human IgG1 (L234A, L235A) / kappa constant regions) VH: EVQLVQSGAEVKKPGASVKVSCKASGYTFTDYAMHWVRQAPGQRLEWMGVISTYSGTTNYNQNFKGRVTITVDKSASTAYMELSSLRSEDTAVYYCARSGPLDYWGQGTTVTVSS VL: ENVLTQSPDFQSVTPKEKVTITCRASSSVSSSYLHWYQQKPDQSPKLWIYSTSNLASGVPSRFSGSGSGTDYTLTINSLEAEDAATYYCQQYSGYPLTFGQGTKLEIKR |
| 2 nM | hAb18-4 (antibody, human IgG1, kappa, L234A L235A, V domains shown, humanized mAb-18: hAb18VH2 + hAb18VL2; human IgG1 (L234A, L235A) / kappa constant regions) VH: EVQLVQSGAEVKKPGASVKVSCKGSGYTFTDYAMHWVRQAPGQRLEWMGVISTYSGTTNYNQNFKGRVTVTVDKSASTAYMELSSLRSEDTAVYYCARSGPLDYWGQGTTVTVSS VL: ENVLTQSPDFQSVTPKEKVTITCRASSSVSSSYLHWYQQKPDQSPKLWIYSTSNLASGVPSRFSGSGSGTDYTLTINSLEAEDAATYYCQQYSGYPLTFGQGTKLEIKR |
| 1.9 nM | hAb18-15 (antibody, human IgG1, kappa, L234A L235A, V domains shown, humanized mAb-18: hAb18VH1 + hAb18VL2-9; human IgG1 (L234A, L235A) / kappa constant regions) VH: EVQLVQSGAEVKKPGASVKVSCKASGYTFTDYAMHWVRQAPGQRLEWMGVISTYSGTTNYNQNFKGRVTITVDKSASTAYMELSSLRSEDTAVYYCARSGPLDYWGQGTTVTVSS VL: ENVLTQSPDFQSVTPKEKVTITCRVSSSVSSSYLHWYQQKPDQSPKLWIYSTSNLASGVPSRFSGSGSGTDYTLTINSLEAEDAATYYCQQYSGYPLTFGQGTKLEIKR |
| 2.4 nM | hAb18-9 (antibody, human IgG1, kappa, L234A L235A, V domains shown, humanized mAb-18: hAb18VH1 + hAb18VL2-3; human IgG1 (L234A, L235A) / kappa constant regions) VH: EVQLVQSGAEVKKPGASVKVSCKASGYTFTDYAMHWVRQAPGQRLEWMGVISTYSGTTNYNQNFKGRVTITVDKSASTAYMELSSLRSEDTAVYYCARSGPLDYWGQGTTVTVSS VL: ENVLTQSPDFQSVTPKEKVTITCRVSSSVSSSYLHWYQQKPDQSPKLWIYSTSQLASGVPSRFSGSGSGTDYTLTINSLEAEDAATYYCQQYSGYPLTFGQGTKLEIKR |
| 5.4 nM | hAb18-13 (antibody, human IgG1, kappa, L234A L235A, V domains shown, humanized mAb-18: hAb18VH1 + hAb18VL2-7; human IgG1 (L234A, L235A) / kappa constant regions) VH: EVQLVQSGAEVKKPGASVKVSCKASGYTFTDYAMHWVRQAPGQRLEWMGVISTYSGTTNYNQNFKGRVTITVDKSASTAYMELSSLRSEDTAVYYCARSGPLDYWGQGTTVTVSS VL: ENVLTQSPDFQSVTPKEKVTITCRASSNVSSSYLHWYQQKPDQSPKLWIYSTSQLASGVPSRFSGSGSGTDYTLTINSLEAEDAATYYCQQYSGYPLTFGQGTKLEIKR |
| 1.9 nM | hAb18-12 (antibody, human IgG1, kappa, L234A L235A, V domains shown, humanized mAb-18: hAb18VH1 + hAb18VL2-6; human IgG1 (L234A, L235A) / kappa constant regions) VH: EVQLVQSGAEVKKPGASVKVSCKASGYTFTDYAMHWVRQAPGQRLEWMGVISTYSGTTNYNQNFKGRVTITVDKSASTAYMELSSLRSEDTAVYYCARSGPLDYWGQGTTVTVSS VL: ENVLTQSPDFQSVTPKEKVTITCRASSSLSSSYLHWYQQKPDQSPKLWIYSTSQLASGVPSRFSGSGSGTDYTLTINSLEAEDAATYYCQQYSGYPLTFGQGTKLEIKR |
| 1.8 nM | hAb18-5 (antibody, human IgG1, kappa, L234A L235A, V domains shown, humanized mAb-18: hAb18VH3 + hAb18VL1; human IgG1 (L234A, L235A) / kappa constant regions) VH: EVQLVQSGAEVKKPGASVKVSCKGSGYTFTDYAMHWVRQAPGQRLEWIGVISTYSGTTNYNQNFKGRATVTVDKSASTAYMELSSLRSEDTAVYYCARSGPLDYWGQGTTVTVSS VL: EIVLTQSPDFQSVTPKEKVTITCRASSSVSSSYLHWYQQKPDQSPKLWIYSTSNLASGVPSRFSGSGSGTDFTLTINSLEAEDAATYYCQQYSGYPLTFGQGTKLEIKR |
| 1.6 nM | hAb18-14 (antibody, human IgG1, kappa, L234A L235A, V domains shown, humanized mAb-18: hAb18VH1 + hAb18VL2-8; human IgG1 (L234A, L235A) / kappa constant regions) VH: EVQLVQSGAEVKKPGASVKVSCKASGYTFTDYAMHWVRQAPGQRLEWMGVISTYSGTTNYNQNFKGRVTITVDKSASTAYMELSSLRSEDTAVYYCARSGPLDYWGQGTTVTVSS VL: ENVLTQSPDFQSVTPKEKVTITCRATSSVSSSYLHWYQQKPDQSPKLWIYSTSNLASGVPSRFSGSGSGTDYTLTINSLEAEDAATYYCQQYSGYPLTFGQGTKLEIKR |
